According to article PMC6495647:

Target: MucA’ protein (plasmid pKM101 (host species not stated))
Assay: SPR; BIAcore 2000, kinetic analysis at lower ligand densities (577 RU of immobilized β, 1036 RU of immobilized MucA’ on CM5); MucB in the mobile phase; BSA reference cell; apparent constants; data not shown

B1: MucB protein (enzyme)
chain: MFALIDVNGMYASCEQAFRPDLANRAVAVLSNNDGNIVARNYLAKKAGLKMGDPYFKVRPIIERHNIAIFSSNYTLYASMSARFAAVVESLASHVEQYSIDELFVDCKGITAAMSLDAFGRQLREEVRRHTTLVCGVGIARTKTLAKLCNHAAKTWPATGGVVALDDGARLKKLMSILPVAEVWGVGHRTEKALATMGIKTVLDLARADTRLIRKTFGVVLERTVRELRGEACFSLEENPPAKQQIVVSRSFGQRVETLTDMQQAVTGFAARAAEKLRNERQYCRVISVFIRTSPYSVRDTQYANQATEKLTVATQDSRTIIQAAQALARIWREDIAYAKAGVMLADFSGKEAQLDLFDSATPSAGSEALMAVLDGINRRGKNQLFFAGQGIDNSFAMRRQMLSPDYTTDWRSIPIATIK
Kd: 1.99 nM | amount bound (RU): 355 RU | koff: 0.000127 s⁻¹ | kon: 63900 M⁻¹ s⁻¹
